Changes are numbered by the printed parent chain.
Assays:
[1] = target: T1, WT G-CSFR(Ig-CRH), purified, tag cleaved (human, UniProt Q99062 26-331); assay: SPR, single-cycle kinetics, G-CSFR(Ig-CRH) on the chip, G-CSF injected
T1 construct: also called G-CSFRWT; wild type G-CSFR(Ig-CRH)
T1 chain: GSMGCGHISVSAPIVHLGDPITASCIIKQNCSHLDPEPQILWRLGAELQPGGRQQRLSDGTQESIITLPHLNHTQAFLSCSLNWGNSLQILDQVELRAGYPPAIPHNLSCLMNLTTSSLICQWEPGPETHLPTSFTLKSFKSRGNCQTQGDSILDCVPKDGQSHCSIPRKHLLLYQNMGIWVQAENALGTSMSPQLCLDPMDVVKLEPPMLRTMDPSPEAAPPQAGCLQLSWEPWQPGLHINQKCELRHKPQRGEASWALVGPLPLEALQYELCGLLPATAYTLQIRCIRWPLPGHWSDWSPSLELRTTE
Description: The SPR binding assays were carried out on a Biacore T200 instrument (GE Healthcare, Mississauga, ON, Canada) with PBS-T (PBS+0.05% (v/v) Tween 20) running buffer at a temperature of 25° C. CM5 Series S sensor chip, Biacore amine coupling kit (NHS, EDC and 1 M ethanolamine), and 10 mM sodium acetate buffers were all purchased from GE Healthcare. PBS running buffer with 0.05% Tween20 (PBS-T) was purchased from Teknova Inc. (Hollister, CA). Designs were assessed in three different immobilization orientations.
To assess binding affinity of G-CSFE to G-CSFRWT, recombinant G-CSFRWT purified as described in Example 5 was captured as described above in this Example. Using single-cycle kinetics, six concentrations of a two-fold dilution series of each G-CSFE mutant starting at […] with a blank buffer control were sequentially injected as described above. The same sample titration was also performed on a reference cell with no variants captured. The G-CSFRWT surface was regenerated as described above.
(§1) Double-referenced sensorgrams from duplicate or triplicate repeat injections were analyzed using Biacore™ T200 Evaluation Software v3.0 and fit to the 1:1 Langmuir binding model.

[2] = target: T2, design 401 G-CSFR(Ig-CRH)E, tag cleaved (human, UniProt Q99062 26-331); assay: SPR, G-CSFRE amine-coupled, G-CSFE injected; steady state derived affinity constant
T2 chain: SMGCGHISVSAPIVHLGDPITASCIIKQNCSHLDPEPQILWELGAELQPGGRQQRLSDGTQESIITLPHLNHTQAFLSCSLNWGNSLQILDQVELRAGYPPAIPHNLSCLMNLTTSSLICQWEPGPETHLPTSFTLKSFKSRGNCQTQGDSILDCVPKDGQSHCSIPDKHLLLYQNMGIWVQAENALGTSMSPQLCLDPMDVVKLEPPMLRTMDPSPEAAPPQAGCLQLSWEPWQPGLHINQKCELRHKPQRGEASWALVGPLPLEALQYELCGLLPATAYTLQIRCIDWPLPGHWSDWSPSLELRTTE
Description: (§2) To determine binding affinity of G-CSFE to G-CSFRE the G-CSFRE mutant was captured by standard amine coupling as described by the manufacturer (GE LifeSciences). Briefly, immediately after EDC/NHS activation, a 5 μg/mL solution of G-CSFRE in 10 mM NaOAc, pH 5.0, was injected at a flow rate of 5 μL/min until a receptor density of ˜700-900 RU was reached. The remaining active groups were quenched by a 420 s injection of 1 M ethanolamine hydrochloride-NaOH pH 8.5 at 10 μL/min. Using single-cycle kinetics, six concentrations of a two-fold dilution series of the corresponding G-CSFE mutant starting at 200 nM with a blank buffer control were sequentially injected at 25 μL/min for 300 s with a 1800 s dissociation phase, resulting in a set of sensorgrams with a buffer blank reference. The same sample titration was also performed on a reference cell with no variants captured. The chip was regenerated to prepare for the next injection cycle by one pulse of 10 mM glycine/HCl, pH 2.0, for 30 s at 30 μL/min.
as §1
(§3) Kinetic-derived affinity constants (KD) where obtained by fitting the association and dissociation phases of the curves. The KD of WT G-CSF for WT G-CSFR(Ig-CRH) ranged between 1.8-2.5E-9. For the cases in which the kinetic parameters could not be fit an attempt was made to derive a steady state affinity constant. In those cases, the KD fold change was calculated from the steady state derived KD for the WT G-CSF:WT G-CSFR(Ig-CRH) pair and is indicated in Table 7.

[3] = target: T3, design 402 G-CSFR(Ig-CRH)E, tag cleaved (human, UniProt Q99062 26-331); assay: as above
T3 chain: T2 chain with D168E, Q175E, D289E
Description: as §2, §1, §3

B1: design 401 G-CSFE, tag cleaved (ligand)
chain: TPLGPASSLPQSFLLKCLKQVRKIQGDGAALQEKLCATYKLCHPERLVLLGHSLGIPWAPLSSCPSQALQLAGCLSQLHSGLFLYQGLLQALEGISPELGPTLDTLQKDVARFATTIWQQMEELGMAPALQPTQGAMPAFASAFQRRAGGVLVASHLQSFLEVSYRVLRHLAQAAAENLYFQ
- binding result [1]: no binding
- KD fold change (against WT:WT) [2]: 0.6 fold

B2: design 402 G-CSFE, tag cleaved (ligand)
chain: B1 chain with K108L, R112K, T115K
- binding result [1]: no binding
- KD fold change (against WT:WT) [3]: 0.8 fold
